Measured values taken from PMC12442443, “Identifying interactions between TDP‐43's N‐terminal and RNA‐binding domains” (Protein Science : A Publication of the Protein Society, 2024).

Legend:
[1] = target: TDP-43 1-260 (NTD-RRM1-RRM2) (Homo sapiens, UniProt Q13148); assay: MST; apparent Kd; NMR: 40 mM HEPES pH 6.5, 300 mM NaCl, 4 mM DTT, 25 C, 25 uM protein; EMSA: same buffer, 25 C incubation, 6.25% PAGE 0.5x TBE at 4 C; MST and HTRF buffers not in material; conditions: protein: recombinant; tags: His (MST: NT-647 labelled HisTDP-43; tag cleaved when needed); single strand
[2] = target: TDP-43 102-260 (RRM1-RRM2) (Homo sapiens, UniProt Q13148); assay: as above; conditions: protein: recombinant; tags: His (MST: NT-647 labelled HisTDP-43; tag cleaved when needed); single strand
TDP-43 1-102 (NTD) = TDP-43 1-102 (NTD) (Homo sapiens, UniProt Q13148); assay: HTRF; ligand (UG)6 per legend; Methods heading names biotin (UG)4; NMR: 40 mM HEPES pH 6.5, 300 mM NaCl, 4 mM DTT, 25 C, 25 uM protein; EMSA: same buffer, 25 C incubation, 6.25% PAGE 0.5x TBE at 4 C; MST and HTRF buffers not in material; conditions: protein: recombinant; tags: His; single strand
Sequence of TDP-43 1-102 (NTD) (Q13148 1-102): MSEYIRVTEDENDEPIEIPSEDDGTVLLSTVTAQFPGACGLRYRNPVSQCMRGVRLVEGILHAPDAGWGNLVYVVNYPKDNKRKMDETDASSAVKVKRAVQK

Sequence of TDP-43 1-260 (NTD-RRM1-RRM2) (Q13148 1-260): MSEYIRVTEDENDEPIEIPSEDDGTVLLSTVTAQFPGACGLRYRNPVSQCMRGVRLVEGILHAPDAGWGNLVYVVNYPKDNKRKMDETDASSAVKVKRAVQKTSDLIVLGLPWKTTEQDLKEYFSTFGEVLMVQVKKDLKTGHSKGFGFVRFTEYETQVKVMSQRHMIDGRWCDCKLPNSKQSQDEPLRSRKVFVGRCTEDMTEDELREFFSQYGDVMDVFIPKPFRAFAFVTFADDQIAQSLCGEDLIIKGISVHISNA
Sequence of TDP-43 102-260 (RRM1-RRM2) (Q13148 102-260): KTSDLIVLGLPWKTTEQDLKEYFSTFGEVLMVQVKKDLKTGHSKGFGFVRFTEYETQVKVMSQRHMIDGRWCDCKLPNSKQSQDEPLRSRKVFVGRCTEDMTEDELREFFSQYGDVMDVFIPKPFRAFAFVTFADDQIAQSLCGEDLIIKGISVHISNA

Binder | Kd [1] | Kd [2] | binding result (TDP-43 1-102 (NTD))
UGUGUGUGUGUG (ssRNA) [(UG)6] | 28.4 nM | 39.8 nM | 
UGUGUGUG (ssRNA) [(UG)4] | 246 nM |  | 
UGUGUGUGUGUG (ssRNA) [(UG)6 HTRF ligand] |  |  | no binding
